Changes are numbered by the printed parent chain.
B1: ADI-10161 Fab (Fab, V domains shown)
VH: EVQLVESGGGLVQPGGSLRLSCAASGFTFSSYWMSWVRQAPGKGLEWVANINQDGSEKYYVDSVKGRFTISRDNAKNSLYLQMNSLRAEDTAVYYCAREGGDSWYHAFDIWGQGTMVTVSS
VL: DIQMTQSPSSVSASVGDRVTITCRASQGISSWLAWYQQKPGKAPKLLIYAASNLQSGVPSRFSGSGSGTDFTLTISSLQPEDFATYYCQQKLSLPLTFGGGTKVEIK
B2: ADI-11839 Fab (Fab, V domains shown)
VH: QVQLVQSGAEVKKPGASVKVSCKASGYTFSNYYMHWVRQAPGQGLEWMGWINPFSGGTRYAQKFQGRVTMTRDTSTSTVYMELSSLRSEDTAVYYCARDVGSSAYYYMDVWGKGTTVTVSS
VL: B1 VL with R24E, Q27K, N53D, K91A, L92F, S93L, L94F, L96P
B3: ADI-10157 Fab (Fab, V domains shown)
VH: QVQLQESGPGLVKPSETLSLTCTVSGGSISSYYWSWIRQPPGKGLEWIGSIYYSGSTNYNPSLKSRVTISVDTSKNQFSLKLSSVTAADTAVYYCARVGGVYSTIETYGMDVWGQGTTVTVSS
VL: EIVMTQSPATLSVSPGERATLSCRASQSVSSNLAWYQQKPGQAPRLLIYGASTRATGIPARFSGSGSGTEFTLTISSLQSEDFAVYYCQQYTVYPPTFGGGTKVEIK
B4: ADI-11830 Fab (Fab, V domains shown)
VH: EVQLVESGGGLVQPGGSLRLSCAASGFTFSSYWMSWVRQAPGKGLEWVANINTDGSEVYYVDSVKGRFTISRDNAKNSLYLQMNSLRAEDTAVYYCARDVGPGIAYQGHFDYWGQGTLVTVSS
VL: DIQMTQSPSSLSASVGDRVTITCRASQVIYSYLNWYQQKPGKAPKLLIYAASSLKSGVPSRFSGSGSGTDFTLTISSLQPEDFATYYCQQVYDTPLTFGGGTKVEIK
B5: ADI-11828 Fab (Fab, V domains shown)
VH: B4 VH with T53Q
VL: B4 VL with V28S, S31Y, L54R, K55Q
B6: ADI-11826 Fab (Fab, V domains shown)
VH: EVQLVESGGGLVQPGGSLRLSCAASGFTFPGYWMSWVRQAPGKGLEWVANINQDGSEVYYVDSVKGRFTISRDNAKNSLYLQMNSLRAEDTAVYYCAREANYYGNVGDDYWGQGTLVTVSS
VL: B4 VL with V28S, S31N, L54T, K55Q, V91A, Y92F, D93H, T94V, L96I
B7: ADI-11825 Fab (Fab, V domains shown)
VH: B6 VH with P30G, V58E
VL: B4 VL with V28S, S31N, S53N, K55H, V91A, Y92F, D93H, T94V, L96I
B8: ADI-10177 Fab (Fab, V domains shown)
VH: EVQLVESGGGLVQPGGSLRLSCAASGFTFSSYWMSWVRQAPGKGLEWVANIKQDGSEKYYVDSVKGRFTISRDNAKNSLYLQMNSLRAEDTAVYYCARPLNAGELDVWGQGTMVTVSS
VL: DIQMTQSPSTLSASVGDRVTITCRASQSISSWLAWYQQKPGKAPKLLIYEASSLESGVPSRFSGSGSGTEFTLTISSLQPDDFATYYCQQLESYPLTFGGGTKVEIK
B9: ADI-11807 Fab (Fab, V domains shown)
VH: B8 VH with S30G, N50T, Y59S
VL: DIQMTQSPSTLSASVGDRVTITCRASQSISSWLAWYQQKPGKAPKLLIYEASSLESGVPSRFSGSGSGTEFTLTISSLQPDDFATYYCQQSQSYPPITFGGGTKVEIK
B10: ADI-11815 Fab (Fab, V domains shown)
VH: QVQLVQSGAEVKKPGASVKVSCKASGYTFGTYYMHWVRQAPGQGLEWMGIINPSRGSTVYAQKFQGRVTMTRDTSTSTVYMELSSLRSEDTAVYYCARGAGYDDEDMDVWGKGTTVTVSS
VL: B1 VL with S30D, N53S, K91A, L92H, L94Y
B11: ADI-11809 Fab (Fab, V domains shown)
VH: B8 VH with S30P, N50T, Q53R, Y59G
VL: B9 VL
B12: ADI-11812 Fab (Fab, V domains shown)
VH: B10 VH with G30E, T31I, R55S
VL: B1 VL with S30D, N53S, K91A, L92H, L94Y
B13: ADI-11835 Fab (Fab, V domains shown)
VH: QLQLQESGPGLVKPSETLSLTCTVSGGSISSTDYYWGWIRQPPGKGLEWIGSIGYSGTYYNPSLKSRVTISVDTSKNQFSLKLSSVTAADTAVYYCARETAHDVHGMDVWGQGTTVTVSS
VL: EIVLTQSPATLSLSPGERATLSCRASHSVYSYLAWYQQKPGQAPRLLIYDASNRATGIPARFSGSGSGTDFTLTISSLEPEDFAVYYCQQYDNLPTFGGGTKVEIK
B14: ADI-10159 Fab (Fab, V domains shown)
VH: EVQLVESGGGLVQPGGSLRLSCAASGFTFSSYGMSWVRQAPGKGLEWVANIKQDGSEKYYVDSVKGRFTISRDNAKNSLYLQMNSLRAEDTAVYYCAREGGPYYDSSGYFVYYGMDVWGQGTTVTVSS
VL: DIQMTQSPSTLSASVGDRVTITCRASQSISSWLAWYQQKPGKAPKLLIYDASSLESGVPSRFSGSGSGTEFTLTISSLQPDDFATYYCQQYESFPTFGGGTKVEIK
B15: ADI-11776 Fab (Fab, V domains shown)
VH: EVQLLESGGGLVQPGGSLRLSCAASGFTFSKYTMSWVRQAPGKGLEWVSAIVGSGESTYFADSVKGRFTISRDNSKNTLYLQMNSLRAEDTAVYYCAREGGPYYDSSGYFVYYGMDVWGQGTTVTVSS
VL: B14 VL with D50K, E92D, S93D, F94L
B16: ADI-11819 Fab (Fab, V domains shown)
VH: EVQLVESGGGLVKPGGSLRLSCAASGFTFSSYAMSWVRQAPGKGLEWVSSISSSSEGIYYADSVKGRFTISRDNAKNSLYLQMNSLRAEDTAVYYCAREGGPYYDSSGYFVYYGMDVWGQGTTVTVSS
VL: B14 VL with Q27N, D50E, L54T, E55K, E92D, S93D, F94L

Columns and labels:
human CD33 R69G (human) = human CD33 R69G (human) (UniProt P20138); assay: SPR, Fab captured, 37C
human CD33 R69G (human), sequence (P20138 18-259 R69G): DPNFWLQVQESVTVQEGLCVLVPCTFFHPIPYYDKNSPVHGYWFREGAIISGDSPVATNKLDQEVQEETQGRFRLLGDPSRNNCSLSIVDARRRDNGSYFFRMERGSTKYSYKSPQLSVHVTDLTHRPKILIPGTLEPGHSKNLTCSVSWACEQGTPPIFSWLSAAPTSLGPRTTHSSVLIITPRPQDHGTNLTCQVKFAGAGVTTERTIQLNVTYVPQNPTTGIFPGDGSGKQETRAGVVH

human CD33 S128N (human) = human CD33 S128N (human) (UniProt P20138); assay: SPR, Fab captured, 37C
human CD33 S128N (human), sequence (P20138 18-259 S128N): as the sequence (P20138 18-259 R69G) above, with G52R, S111N counted along it

| Binder | Kd (human CD33 R69G (human)) | koff (human CD33 R69G (human)) | kon (human CD33 R69G (human)) | Kd (human CD33 S128N (human)) | koff (human CD33 S128N (human)) | kon (human CD33 S128N (human)) |
| --- | --- | --- | --- | --- | --- | --- |
| B1 | 48.9 nM | 0.0307 s⁻¹ | 629000 M⁻¹ s⁻¹ | 63.6 nM | 0.0385 s⁻¹ | 605000 M⁻¹ s⁻¹ |
| B2 |  |  |  | 29.5 nM | 0.0284 s⁻¹ | 963000 M⁻¹ s⁻¹ |
| B3 | 17.8 nM | 0.0287 s⁻¹ | 1.56e+06 M⁻¹ s⁻¹ | 163 nM | 0.00924 s⁻¹ | 56500 M⁻¹ s⁻¹ |
| B4 | 2.94 nM | 0.00663 s⁻¹ | 2.27e+06 M⁻¹ s⁻¹ |  |  |  |
| B5 | 6.03 nM | 0.007 s⁻¹ | 1.16e+06 M⁻¹ s⁻¹ | 5.41 nM | 0.00742 s⁻¹ | 1.37e+06 M⁻¹ s⁻¹ |
| B6 | 3.83 nM | 0.00723 s⁻¹ | 1.89e+06 M⁻¹ s⁻¹ | 2.65 nM | 0.00574 s⁻¹ | 2.17e+06 M⁻¹ s⁻¹ |
| B7 | 3.74 nM | 0.00695 s⁻¹ | 1.86e+06 M⁻¹ s⁻¹ | 3.09 nM | 0.00649 s⁻¹ | 2.1e+06 M⁻¹ s⁻¹ |
| B8 |  |  | 230000 M⁻¹ s⁻¹ |  |  |  |
| B9 | 0.43 nM | 0.000259 s⁻¹ | 597000 M⁻¹ s⁻¹ |  |  |  |
| B10 | 4.34 nM | 0.0013 s⁻¹ | 300000 M⁻¹ s⁻¹ |  |  |  |
| B11 | 0.22 nM | 0.000179 s⁻¹ | 815000 M⁻¹ s⁻¹ |  |  |  |
| B12 | 6.74 nM | 0.00228 s⁻¹ | 338000 M⁻¹ s⁻¹ | 2.01 nM | 0.00112 s⁻¹ | 556000 M⁻¹ s⁻¹ |
| B13 | 0.67 nM | 0.00205 s⁻¹ | 3.07e+06 M⁻¹ s⁻¹ |  |  |  |
| B14 | 5.68 nM | 0.00243 s⁻¹ | 426000 M⁻¹ s⁻¹ |  |  |  |
| B15 | 0.22 nM | 0.000426 s⁻¹ | 1.98e+06 M⁻¹ s⁻¹ |  |  |  |
| B16 | 0.09 nM | 0.000244 s⁻¹ | 2.78e+06 M⁻¹ s⁻¹ |  |  |  |
